According to PMC3852774:
Each block holds one molecule with its values, some of them ahead of it.

Assays:
[1] = biological target: Tth Man5 β-mannosidase from Thermotoga thermarum DSM 5069 (Thermotoga thermarum DSM 5069); assay: SEC; Superdex 200 10/30 GL column on an AKTA FPLC system; MW from the calibration curve of the gel filtration column
purified protein = substrate: O=[N+]([O-])c1ccc(O[C@@H]2O[C@H](CO)[C@@H](O)[C@H](O)[C@@H]2O)cc1; assay: purified protein; conditions: 50 mM imidazole-potassium buffer pH 5.5, 85°C, error given as ±0.5

stoichiometry N [1]: 7
Molecule: Tth Man5 β-mannosidase from Thermotoga thermarum DSM 5069 (enzyme)

B1: Tth Man5 β-mannosidase (Pseudothermotoga thermarum DSM 5069) (protein)
chain: MDFLLGINYWSRSGAMYMWEDEYFNEEVIENEIIEMKNLGMNICRSFLFLPTFFPKPNKISEKHVERYLKFLNLCEEHGLKTLLTFIVGHMSGENFDPPFRNQRDLYMDEFMLQQQCFFVKSIVEKVRSSPAVYGYILSNEMPLYGGTGEPEKVLNWVKKLVEVIKSVDPTRPVGTGDGCWNVFGGENGFNLREISKIVDYLGPHVYLSETDEYRHSMIPEFVIRYLSQYDLPILYEEFGASSAQALDENIALYYREVLINCLINGAIGALGWCLNDFNYPNMKPYLHHPFELKFGIFKVDGARKPAAEEIVKFKNFVDSLENIQYPNAEACILVPSYYNKQYPFSFDDPKETFKHLLQATVLCAKAGFVVDLVEEENYKRWKSYKLIILPSERKYLATTWENLHKYVQAGGNLYISYYWGKYDFHQGIWSQNLESLIGCKLNLRYGLTSSLPSKVKLEYGGLTWKLNVEKCNEWEKSYAPIVSILETAESIELGQSDLQLVKNKVGSGKVFFINFPLEHILSVNEKINLSDLSHLIYRCIAKQASLNLCYCDNQRVRVRKIKSGRKTLYLIQNIAWDKEQVQTIFDNSSTYHVQIELDPKEYKLLNF
Km (purified protein): 4.36 ± 0.05 mM | Vmax (purified protein): 227 µmol/min/mg | kcat (purified protein): 1920 s⁻¹ | kcat/Km (purified protein): 441000 M⁻¹ s⁻¹
